Laboratory results reported in US7176293B1, “Compositions and methods to enhance sensitivity of cancer cells to mitotic stress” (The Wistar Institute of Anatomy and Biology, priority 1999, dated 2007).
Changes are numbered by the printed parent chain.

B1: Chfr-M580: chfr protein bearing a substitution of Val580 with Met (protein, UniProt Q96EP1 1-664, looked up, variant V580M)
E3 ubiquitin-protein ligase …: MERPEEGKQSPPPQPWGRLLRLGAEEGEPHVLLRKREWTIGRRRGCDLSFPSNKLVSGDHCRIVVDEKSGQVTLEDTSTSGTVINKLKVVKKQTCPLQTGDVIYLVYRKNEPEHNVAYLYESLSEKQGMTQESFEANKENVFHGTKDTSGAGAGRGADPRVPPSSPATQVCFEEPQPSTSTSDLFPTASASSTEPSPAGRERSSSCGSGGGGISPKGSGPSVASDEVSSFASALPDRKTASFSSLEPQDQEDLEPVKKKMRGDGDLDLNGQLLVAQPRRNAQTVHEDVRAAAGKPDKMEETLTCIICQDLLHDCVSLQPCMHTFCAACYSGWMERSSLCPTCRCPVERICKNHILNNLVEAYLIQHPDKSRSEEDVQSMDARNKITQDMLQPKVRRSFSDEEGSSEDLLELSDVDSESSDISQPYVVCRQCPEYRRQAAQPPHCPAPEGEPGAPQALGDAPSTSVSLTTAVQDYVCPLQGSHALCTCCFQPMPDRRAEREQDPRVAPQQCAVCLQPFCHLYWGCTRTGCYGCLAPFCELNLGDKCLDGVLNNNSYESDILKNYLATRGLTWKNMLTESLMALQRGVFLLSDYRVTGDTVLCYCCGLRSFRELTYQYRQNIPASELPVAVTSRPDCYWGRNCRTQVKAHHAMKFNHICEQTRFKN
B2: wild-type Chfr: 664 amino acid human checkpoint protein with FHA and ring finger domains, SEQ ID NO: 2; HA-tagged when expressed in cells (protein, listed as Homo sapiens)
chain: B1 E3 ubiquitin-protein ligase … with M580V
modifications: HA tag when expressed
notes: HA-tagged when expressed in cells
B3: Chfr-A325: Chfr mutant that substitutes Cys325 of the ring finger with Ala (protein, UniProt Q96EP1 1-664, looked up, variant C325A)
E3 ubiquitin-protein ligase …: B1 E3 ubiquitin-protein ligase … with C325A, M580V
B4: GST-Chfr: glutathione S-transferase fused to the N-terminus of full-length Chfr (protein)
chain: B1 E3 ubiquitin-protein ligase … with M580V
modifications: left off: a dimerising Fc or GST

Tests used:
[1] = tested on: DLD1 cells; test: Mitotic index of transiently-transfected DLD1 cells exposed to mitotic stress; assay type: cell-based, human; conditions: DLD1 cells co-transfected with wild-type Chfr
Procedure: (§1) Stable transfectants were prepared by transfecting DLD1 or U20S cells with 5 μg pSV2-HAchfr or pSV2-HAchfr-M580, or 5 μg pSV2 vector without insert and 1 μg pSV7neo plasmid [Wieczorek et al., supra] using Fugene-6 transfection reagent (Roche). Stably transfected cells were selected with G418. For transient expression, DLD1 or U20S cells were transfected with 5 μg pSV2-HAchfr or pSV2-HAchfrM580 or pSV2 plasmid without insert and 2 μg of a plasmid expressing green fluorescent protein using Fugene-6. SAOS2 cells were transfected as described above, except that the plasmids expressing Chfr were cotransfected with a plasmid expressing green fluorescent protein (GFP).
(§2) Cells were grown on 8-well culture slides coated with human fibronectin (Becton Dickinson) and were examined as either non-synchronized or synchronized cells. […] The slides were sealed with coverslips using Fluoromount-G (Upstate Biotechnology) and visualized with a fluorescence microscope (Leica). […]
About 50% of the cells expressed GFP, but the variable level of expression made it difficult to define a threshold above which a cell would be considered GFP-positive. Thus, to avoid any bias, the mitotic index was calculated for the entire cell population. […]

[2] = tested on: DLD1 and U20S cells; test: Mitotic index of stably transfected DLD1 and U20S cells in response to nocodazole; assay type: cell-based, human
Procedure: as §1, §2
To determine whether Chfr accounted for the different response, DLD1 and U20S cells were prepared to stably express HA-tagged wild-type Chfr or Chfr with the […] substitution (M580) or just the neo selectable marker. […] Furthermore, the different effects of wild-type Chfr and Chfr-M580 could not be attributed to differences in protein expression, as determined by immunoblotting. […]

[3] = tested on: DLD1 cells; test: Entry into metaphase of synchronized DLD1-neo and DLD1-chfr cells under mitotic stress; assay type: cell-based, human; conditions: synchronized DLD1-chfr vs DLD1-neo; drug added 12 hours after release from the G1-S block
Procedure: All cancer cells were grown in DMEM supplemented with glutamine, penicillin, streptomycin and 10% fetal bovine serum (Life Sciences). Normal human epidermal keratinocytes and osteoblasts were grown in KGM2 and OGM media, respectively (Clonetics). The cells were examined either non-synchronized or synchronized. For synchronization, the cells were treated with 2 mM thymidine for 16 hours, then with 0.25 mM thymidine/deoxycytidine for 9 hours, and then with 0.5 μg/ml aphidicolin for 20–24 hours. The cells were washed three times with PBS between each step [Janss et al., 1998, Exp. Cell Res., 243:29–38]. To induce mitotic stress, synchronized or non-synchronized cells were exposed to 0.5 μg/ml nocodazole, 5 μM of the TAXOL™ drug or 0.5 μg/ml colcemid. Cells were grown on 8-well culture slides coated with human fibronectin (Becton Dickinson) and were examined as either non-synchronized or synchronized cells. […] The slides were sealed with coverslips using Fluoromount-G (Upstate Biotechnology) and visualized with a fluorescence microscope (Leica). […] Progression through the cell cycle was monitored by measuring the mitotic index and by flow cytometric analysis of the DNA content of the cells.

[4] = tested on: SAOS2 cells; test: Mitotic index of transiently-transfected SAOS2 cells exposed to the TAXOL drug; assay type: cell-based, human; conditions: SAOS2, TAXOL drug added 36 hours after transfection; 12, 14 and 16 hour timepoints
Procedure: as §1, §2
Chfr-ΔFHA, a Chfr protein with deletion of residues 2–142 encompassing the FHA domain, was identified as a dominant negative mutant by studying its function in DLD 1 cells. […] 36 hours later, mitotic stress was induced by exposure to the TAXOL™ drug and the mitotic index was determined 8 to 16 hours late. Protein levels were determined by immunoblotting with an antibody that recognizes the N-terminal HA tag of the expressed Chfr proteins. […]

[5] = tested on: DLD1 cells; test: Mitotic index of unsynchronized DLD1 cells stably expressing Chfr or Chfr-A325, exposed to nocodazole; assay type: cell-based, human; conditions: stably transfected unsynchronized DLD1 cells
Source text: To determine whether ubiquitin-protein ligase activity is required for checkpoint function, the Chfr mutant that substitutes Cys325 of the ring finger with Ala was stably-expressed in DLD1 cells. These cells were then exposed to mitotic stress and examined for entry into metaphase. The mitotic index of unsynchronized DLD1 cells exposed to nocodazole is high, indicating the absence of a checkpoint that would delay entry into metaphase in response to mitotic stress.

[6] = tested on: Chfr; test: Ubiquitin-protein ligase assay in vitro; assay type: biochemical, human; conditions: crude bacterial lysates with E1, E2, ubiquitin and ATP; 20 minutes at 30° C.
Procedure: Recombinant E. coli bacterial cells that have been genetically engineered to express the E1 ubiquitin-activating enzyme and the E2 ubiquitin-conjugating enzyme (either UbchD2 or Ubch8) and a […] comprised of glutathione S-transferase fused to the N-terminus of Chfr were lysed. The lysates were incubated in the presence of ubiquitin and ATP and the reaction allowed to proceed for 20 minutes at 30° C. GST-Chfr was captured on glutathione beads, eluted with SDS sample buffer, and resolved by SDS-PAGE. The SDS gel was immunoblotted with antibodies that recognize ubiquitin. Reactions were performed with full-length Chfr fused to GST and reactions were performed with Chfr lacking amino acid residues 1–280 of SEQ ID NO: 2, which contain the FHA domain.

| Molecule | dominant negative effect on wild-type Chfr [1] | mitotic index in response to nocodazole [2] | entry into metaphase in response to mitotic stress [3] | effect on mitotic index compared to cells transfected with empty vector [4] | mitotic index after exposure to nocodazole [5] | ubiquitin-protein ligase activity (ubiquitination of GST-Chfr) [6] |
| --- | --- | --- | --- | --- | --- | --- |
| B1 | aid not act as a dominant negative mutant | high mitotic index |  |  |  |  |
| B2 |  | low mitotic index | delays entry into metaphase | no effect | low mitotic index |  |
| B3 |  |  |  |  | did not lead to a low mitotic index | lacks ubiquitin-protein ligase activity |
| B4 |  |  |  |  |  | efficient ubiquitination |
